Assay results from patent publication US7056679B2, “Target specific screening and its use for identifying target binders” (Antyra, Inc., priority 2001, dated 2006).

Tests used:
DGI-2 = target: T1, DGI-2 (Homo sapiens, UniProt Q15004); assay: ELISA analysis of phage on DGI-2 polypeptide (specific binding); conditions: for DGI-2 (OD): binding to DGI-2 polypeptide (specific binding), phage ELISA units read at 405 nm; for DGI-2/LDH (OD): ratio of specific binding to non-specific binding
T1 construct: encompassed the entire DGI-2 open reading frame (ORF); His-tag of vector pIVEX2.3-MCS (inferred from the vector and from the reverse primer lacking a stop codon); made in house; host or cells: cell-free in vitro translation (Rapid Translation System RTS, Roche; E. coli lysate)
T1 sequence (Q15004 1-111): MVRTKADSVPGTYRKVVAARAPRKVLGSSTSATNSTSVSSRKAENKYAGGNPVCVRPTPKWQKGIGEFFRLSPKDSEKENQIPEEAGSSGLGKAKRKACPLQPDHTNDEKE
Method in brief: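 Recombinant DGI-2 from in vitro translation, LDH (non-specific) and controls were coated at 500 ng/well and blocked with 2% milk-PBS. Phage from individual clones bound for 2 hr at room temperature, then anti-M13-HRP with ABTS was read at 405 nm; a clone counted as positive at ≥2-fold over background.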

[1] = system: lactate dehydrogenase (LDH); assay: ELISA analysis of phage on LDH (irrelevant, non-specific target); format: binding; conditions: peptide binding to LDH polypeptide (non-specific binding); phage ELISA units read at 405 nm
Method in brief: (§1)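 Phage from picked clones (M13KO7 helper) bound 2 hr at room temperature to wells coated overnight at 4 °C with 500 ng/well anti-ETAG antibody or LDH, milk-blocked. Detection with HRP-anti-M13 (1:3000) and ABTS at 405 nm; positive when A405 ≥2-fold over background.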

E-tag antibody = assay: ELISA analysis of phage on antibody raised against ETAG (positive control); conditions: peptide binding to E-tag antibody; phage ELISA units read at 405 nm
Method in brief: as §1

DGI-2 (OD) (DGI-2)	DGI-2/LDH (OD) (DGI-2)	LDH (OD) [1] [OD]	Substance	ETAG (OD) (E-tag antibody)
3.2	3.2	1.0	SYRNFAMQSSLQVRRGSVVEDGTCWWEGVRCYSG (DGI-2-40F-4-F6; listed as Escherichia coli)	13.5
4.0	3.3	1.2	MSSTAWTDRILQRGIGLGPV (DGI-2-20R-4-F1212; listed as Escherichia coli)	9.8
2.7	2.7	1.0	SIVSSRSGWQRGWIAWEAPV (SIVSSRSGWQRGWIAWFAPV; DGI-2-20F-PP-E5; listed as Escherichia coli)	30.4
2.6	2.7	1.0	VGHLLSRCAHHSPGMGASPYG (DGI-2-20F-PP-B11; listed as Escherichia coli)	40.8
2.1	2.2	1.0	CCAWNGVGVGGLGWRVVVGP (DGI-2-20F-PP-H4; listed as Escherichia coli)	32.9

The remaining lines, values behind:

Substance	DGI-2 (OD) (DGI-2)	DGI-2/LDH (OD) (DGI-2)	LDH (OD) [1] [OD]	ETAG (OD) (E-tag antibody)
TANGHRYGGCGLWCKWMSGM (DGI-2-20R-4-E2; listed as Escherichia coli)	2.7	2.5	1.1	18.2
S#ARSLMTGVVAVCIVWRGP (SARSLMTGVVAVCIVWRGP; DGI-2-20F-PP-E8; listed as Escherichia coli)	2.5	2.6	1.0	36.3
TLVTEGNIKGSVKAHKDIGVWQLWWDWLSVTDSETVGRVSH (TLVTEGNKGSVKAHKDIGVWQLWWDWLSVTDSETVGRVSH; DGI-2-40F-3-D10; listed as Escherichia coli) [DGL-2-40F-3-D10]	1.5	1.7	0.9	10.3
SVTISTSCRTGCPAGYLRRD (DGI-2-20F-PP-D2; listed as Escherichia coli)	2.2	3.1	0.7	30.8
CRNFGVIWGAGWVSPGCEDJ (CRNFGVIWGAGWVSPGCEDI; not fully specified; non-natural residue J; DGI-2-20F-3-A1; listed as Escherichia coli) [DGI-2-20E-3-A1]	2.8	3.0	1.0	14.3
SVSGGGVFGTGGRVRHQVSG (DGI-2-20F-PP-C5; listed as Escherichia coli)	2.2	2.4	0.9	33.9
LSLLSVVVRSMGASAPQRQV (DGI-2-20F-3-A7; listed as Escherichia coli)	2.1	2.4	0.9	7.0
YTPASILTGFQRGYEGAGNG (DGI-2-20R-4-G7; listed as Escherichia coli)	4.7	3.9	1.2	11.6
